# Assay results reported in the Human Domainome abundance scans (Beltran et al. 2025).
# ± gives the uncertainty stated by the source.
# B1: POU domain, class 4, transcription factor 1, residues 266 to 347; numbered along this chain, Q01851 (parent)
# chain: RELEAFAERFKQRRIKLGVTQADVGSALANLKIPGVGSLSQSTICRFESLTLSHNNMIALKPILQAWLEEAEGAQREKMNKP
# Variants of: B1
# Assay: abundance fitness (aPCA) (normalised: wild type 0, dead -1); higher = more abundant; growth selection in yeast, the domain comes from the species named
# Conditions: Homo sapiens
row,Variant,abundance fitness
1,RELEAFAERFKQRRIKLGVTQADVGSALANLKIPGVGSLSQSTICRFESLTLSHNNMIALKPMLQAWLEEAEGAQREKMNKP,-0.168 ± 0.078
2,RELEAFAERFKQRRIKLGVTQADVGSALANLKIPGVGSLSQSTICRFESLTLSHNNMIALKPNLQAWLEEAEGAQREKMNKP,-0.17 ± 0.11
3,RELEAFAERFKQRRIKLGVTQADVGSALANLKIPGVGSLSQSTICRFESLTLSHNNMIALKPPLQAWLEEAEGAQREKMNKP,-0.203 ± 0.081
4,RELEAFAERFKQRRIKLGVTQADVGSALANLKIPGVGSLSQSTICRFESLTLSHNNMIALKPQLQAWLEEAEGAQREKMNKP,-0.247 ± 0.075
5,RELEAFAERFKQRRIKLGVTQADVGSALANLKIPGVGSLSQSTICRFESLTLSHNNMIALKPRLQAWLEEAEGAQREKMNKP,-0.154 ± 0.04
6,RELEAFAERFKQRRIKLGVTQADVGSALANLKIPGVGSLSQSTICRFESLTLSHNNMIALKPSLQAWLEEAEGAQREKMNKP,-0.204 ± 0.068
7,RELEAFAERFKQRRIKLGVTQADVGSALANLKIPGVGSLSQSTICRFESLTLSHNNMIALKPTLQAWLEEAEGAQREKMNKP,0.034 ± 0.08
8,RELEAFAERFKQRRIKLGVTQADVGSALANLKIPGVGSLSQSTICRFESLTLSHNNMIALKPVLQAWLEEAEGAQREKMNKP,0.002 ± 0.046
9,RELEAFAERFKQRRIKLGVTQADVGSALANLKIPGVGSLSQSTICRFESLTLSHNNMIALKPIAQAWLEEAEGAQREKMNKP,-0.513 ± 0.07
10,RELEAFAERFKQRRIKLGVTQADVGSALANLKIPGVGSLSQSTICRFESLTLSHNNMIALKPICQAWLEEAEGAQREKMNKP,-0.499 ± 0.14
11,RELEAFAERFKQRRIKLGVTQADVGSALANLKIPGVGSLSQSTICRFESLTLSHNNMIALKPIDQAWLEEAEGAQREKMNKP,-0.652 ± 0.36
12,RELEAFAERFKQRRIKLGVTQADVGSALANLKIPGVGSLSQSTICRFESLTLSHNNMIALKPIEQAWLEEAEGAQREKMNKP,-0.709 ± 0.12
13,RELEAFAERFKQRRIKLGVTQADVGSALANLKIPGVGSLSQSTICRFESLTLSHNNMIALKPIFQAWLEEAEGAQREKMNKP,-0.337 ± 0.34
14,RELEAFAERFKQRRIKLGVTQADVGSALANLKIPGVGSLSQSTICRFESLTLSHNNMIALKPIGQAWLEEAEGAQREKMNKP,-0.672 ± 0.065
15,RELEAFAERFKQRRIKLGVTQADVGSALANLKIPGVGSLSQSTICRFESLTLSHNNMIALKPIIQAWLEEAEGAQREKMNKP,-0.339 ± 0.26
16,RELEAFAERFKQRRIKLGVTQADVGSALANLKIPGVGSLSQSTICRFESLTLSHNNMIALKPIMQAWLEEAEGAQREKMNKP,-0.323 ± 0.12
17,RELEAFAERFKQRRIKLGVTQADVGSALANLKIPGVGSLSQSTICRFESLTLSHNNMIALKPINQAWLEEAEGAQREKMNKP,-0.431 ± 0.21

row,Variant,abundance fitness
1,RELEAFAERFKQRRIKLGVTQADVGSALANLKIPGVGSLSQSTICRFESLTLSHNNMIALKPIPQAWLEEAEGAQREKMNKP,-0.711 ± 0.24
2,RELEAFAERFKQRRIKLGVTQADVGSALANLKIPGVGSLSQSTICRFESLTLSHNNMIALKPIQQAWLEEAEGAQREKMNKP,-0.533 ± 0.18
3,RELEAFAERFKQRRIKLGVTQADVGSALANLKIPGVGSLSQSTICRFESLTLSHNNMIALKPISQAWLEEAEGAQREKMNKP,-0.793 ± 0.12
4,RELEAFAERFKQRRIKLGVTQADVGSALANLKIPGVGSLSQSTICRFESLTLSHNNMIALKPITQAWLEEAEGAQREKMNKP,-0.76 ± 0.15
5,RELEAFAERFKQRRIKLGVTQADVGSALANLKIPGVGSLSQSTICRFESLTLSHNNMIALKPIVQAWLEEAEGAQREKMNKP,-0.336 ± 0.059
6,RELEAFAERFKQRRIKLGVTQADVGSALANLKIPGVGSLSQSTICRFESLTLSHNNMIALKPIWQAWLEEAEGAQREKMNKP,-0.948 ± 0.19
7,RELEAFAERFKQRRIKLGVTQADVGSALANLKIPGVGSLSQSTICRFESLTLSHNNMIALKPIYQAWLEEAEGAQREKMNKP,-0.144 ± 0.19
8,RELEAFAERFKQRRIKLGVTQADVGSALANLKIPGVGSLSQSTICRFESLTLSHNNMIALKPILAAWLEEAEGAQREKMNKP,-0.041 ± 0.028
9,RELEAFAERFKQRRIKLGVTQADVGSALANLKIPGVGSLSQSTICRFESLTLSHNNMIALKPILCAWLEEAEGAQREKMNKP,-0.14 ± 0.041
10,RELEAFAERFKQRRIKLGVTQADVGSALANLKIPGVGSLSQSTICRFESLTLSHNNMIALKPILDAWLEEAEGAQREKMNKP,0.01 ± 0.041
11,RELEAFAERFKQRRIKLGVTQADVGSALANLKIPGVGSLSQSTICRFESLTLSHNNMIALKPILEAWLEEAEGAQREKMNKP,0.061 ± 0.031
12,RELEAFAERFKQRRIKLGVTQADVGSALANLKIPGVGSLSQSTICRFESLTLSHNNMIALKPILFAWLEEAEGAQREKMNKP,-0.112 ± 0.041
13,RELEAFAERFKQRRIKLGVTQADVGSALANLKIPGVGSLSQSTICRFESLTLSHNNMIALKPILGAWLEEAEGAQREKMNKP,-0.086 ± 0.024
14,RELEAFAERFKQRRIKLGVTQADVGSALANLKIPGVGSLSQSTICRFESLTLSHNNMIALKPILHAWLEEAEGAQREKMNKP,-0.047 ± 0.05
15,RELEAFAERFKQRRIKLGVTQADVGSALANLKIPGVGSLSQSTICRFESLTLSHNNMIALKPILIAWLEEAEGAQREKMNKP,-0.105 ± 0.045
16,RELEAFAERFKQRRIKLGVTQADVGSALANLKIPGVGSLSQSTICRFESLTLSHNNMIALKPILKAWLEEAEGAQREKMNKP,-0.049 ± 0.036
